Test results as given in paper PMC11886768 (2025).

B1: GFP-CRY1 (N. benthamiana) [Arabidopsis] / cLUC-COP1 [Arabidopsis] (parent)
chain 1: MSGSVSGCGSGGCSIVWFRRDLRVEDNPALAAAVRAGPVIALFVWAPEEEGHYHPGRVSRWWLKNSLAQLDSSLRSLGTCLITKRSTDSVASLLDVVKSTGASQIFFNHLYDPLSLVRDHRAKDVLTAQGIAVRSFNADLLYEPWEVTDELGRPFSMFAAFWERCLSMPYDPESPLLPPKKIISGDVSKCVADPLVFEDDSEKGSNALLARAWSPGWSNGDKALTTFINGPLLEYSKNRRKADSATTSFLSPHLHFGEVSVRKVFHLVRIKQVAWANEGNEAGEESVNLFLKSIGLREYSRYISFNHPYSHERPLLGHLKFFPWAVDENYFKAWRQGRTGYPLVDAGMRELWATGWLHDRIRVVVSSFFVKVLQLPWRWGMKYFWDTLLDADLESDALGWQYITGTLPDSREFDRIDNPQFEGYKFDPNGEYVRRWLPELSRLPTDWIHHPWNAPESVLQAAGIELGSNYPLPIVGLDEAKARLHEALSQMWQLEAASRAAIENGSEEGLGDSAEVEEAPIEFPRDITMEETEPTRLNPNRRYEDQMVPSITSSLIRPEEDEESSLNLRNSVGDSRAEVPRNMVNTNQAQQRRAEPASNQVTAMIPEFNIRIVAESTEDSTAESSSSGRRERSGGIVPEWSPGYSEQFPSEENGIGGGSTTSSYLQNHHEILNWRRLSQTG
chain 2: MEEISTDPVVPAVKPDPRTSSVGEGANRHENDDGGSGGSEIGAPDLDKDLLCPICMQIIKDAFLTACGHSFCYMCIITHLRNKSDCPCCSQHLTNNQLYPNFLLDKLLKKTSARHVSKTASPLDQFREALQRGCDVSIKEVDNLLTLLAERKRKMEQEEAERNMQILLDFLHCLRKQKVDELNEVQTDLQYIKEDINAVERHRIDLYRARDRYSVKLRMLGDDPSTRNAWPHEKNQIGFNSNSLSIRGGNFVGNYQNKKVEGKAQGSSHGLPKKDALSGSDSQSLNQSTVSMARKKRIHAQFNDLQECYLQKRRQLADQPNSKQENDKSVVRREGYSNGLADFQSVLTTFTRYSRLRVIAEIRHGDIFHSANIVSSIEFDRDDELFATAGVSRCIKVFDFSSVVNEPADMQCPIVEMSTRSKLSCLSWNKHEKNHIASSDYEGIVTVWDVTTRQSLMEYEEHEKRAWSVDFSRTEPSMLVSGSDDCKVKVWCTRQEASVINIDMKANICCVKYNPGSSNYIAVGSADHHIHYYDLRNISQPLHVFSGHKKAVSYVKFLSNNELASASTDSTLRLWDVKDNLPVRTFRGHTNEKNFVGLTVNSEYLACGSETNEVYVYHKEITRPVTSHRFGSPDMDDAEEEAGSYFISAVCWKSDSPTMLTANSQGTIKVLVLAA

Variants of: B1
Assay: luciferase complementation imaging (LCI) competition assay (cLUC-COP1 + HY5-nLUC)
Conditions: with cLUC-COP1 [Arabidopsis]; transfected N. benthamiana leaves, n = 22, CCD camera; value is the mean ('+'), median about 0.95; GFP-NLS-GUS control = 1; higher signal = less displacement …; parent: 0.6; read off a plot

Variant	screen value
chain 1 V548A P549A	1.1

Variants of: B1
Assay: mammalian three-hybrid (M3H) competition assay (displacement of HY5-VP16 from E-COP1)
Conditions: with E-COP1 [Arabidopsis]; CHO-K1 cells, blue light (10 μmol m−2 s−1), 24 h; higher signal = less displacement of HY5 by the CRY1 variant; GFP control est. 150; parent: 30; read off a plot

Variant	screen value (Au (SEAP/sNLuc))
chain 1 V548A P549A	150

Same assay, conditions: with E-COP1 [Arabidopsis]; CHO-K1 cells, darkness, 24 h; higher signal = less displacement of HY5 by the CRY1 variant; GFP control est. 150; parent: 76; read off a plot

Variant	screen value (Au (SEAP/sNLuc))
chain 1 V548A P549A	130
